The values below come from US9738911B2, “Methods of producing 7-carbon chemicals via pyruvate and succinate semialdehyde aldol condensation” (INVISTA North America S.a r.l., priority 2012, dated 2017).

This test is described as follows: Carboxylate reductase activity assay, N7-acetyl-7-aminoheptanoate to N7-acetyl-7-aminoheptanal. The format is biochemical. To be noted: 2 mM N7-acetyl-7-aminoheptanoate, 1 mM ATP, 1 mM NADPH, enhanced by sfp gene product, room temperature, 20 min; against empty vector control (FIG. 12). The protocol:
The activity of each of the N-terminal His-tagged carboxylate reductases of SEQ ID NOs: 3, 6, and 7 (see Examples 4, and FIGS. 7B, 7E, and 7F) for converting N7-acetyl-7-aminoheptanoate to N7-acetyl-7-aminoheptanal was assayed in triplicate in a buffer composed of a final concentration of 50 mM HEPES buffer (pH=7.5), 2 mM N7-acetyl-7-aminoheptanoate, 10 mM MgCl2, 1 mM ATP, and 1 mM NADPH. The assays were initiated by adding purified carboxylate reductase and phosphopantetheine transferase or the empty vector control to the assay buffer containing the N7-acetyl-7-aminoheptanoate then incubated at room temperature for 20 min. The consumption of NADPH was monitored by absorbance at 340 nm.

B1: SEQ ID NO 6: Mycobacterium massiliense carboxylate reductase (Genbank Accession No. EIV 11143.1) (protein)
chain: MTNETNPQQEQLSRRIESLRESDPQFRAAQPDPAVAEQVLRPGLHLSEAIAALMTGYAERPALGERARELVIDQDGRTTLRLLPRFDTTTYGELWSRTTSVAAAWHHDATHPVKAGDLVATLGFTSIDYTVLDLAIMILGGVAVPLQTSAPASQWTTILAEAEPNTLAVSIELIGAAMESVRATPSIKQVVVFDYTPEVDDQREAFEAASTQLAGTGIALETLDAVIARGAALPAAPLYAPSAGDDPLALLIYTSGSTGAPKGAMHSENIVRRWWIREDVMAGTENLPMIGLNFMPMSHIMGRGTLTSTLSTGGTGYFAASSDMSTLFEDMELIRPTALALVPRVCDMVFQRFQTEVDRRLASGDTASAEAVAAEVKADIRDNLFGGRVSAVMVGSAPLSEELGEFIESCFELNLTDGYGSTEAGMVFRDGIVQRPPVIDYKLVDVPELGYFSTDKPHPRGELLLKTDGMFLGYYKRPEVTASVFDADGFYMTGDIVAELAHDNIEIIDRRNNVLKLSQGEFVAVATLEAEYANSPVVHQIYVYGSSERSYLLAVVVPTPEAVAAAKGDAAALKTTIADSLQDIAKEIQLQSYEVPRDFIIEPQPFTQGNGLLTGIAKLARPNLKAHYGPRLEQMYAEIAEQQAAELRALHGVDPDKPALETVLKAAQALLGVSSAELAADAHFTDLGGDSLSALSFSDLLRDIFAVEVPVGVIVSAANDLGGVAKFVDEQRHSGGTRPTAETVHGAGHTEIRAADLTLDKFIDEATLHAAPSLPKAAGIPHTVLLTGSNGYLGHYLALEWLERLDKTDGKLIVIVRGKNAEAAYGRLEEAFDTGDTELLAHFRSLADKHLEVLAGDIGDPNLGLDADTWQRLADTVDVIVHPAALVNHVLPYNQLFGPNVVGTAEIIKLAITTKIKPVTYLSTVAVAAYVDPTTFDEESDIRLISAVRPIDDGYANGYGNAKWAGEVLLREAHDLCGLPVAVFRSDMILAHSRYTGQLNVPDQFTRLILSLIATGIAPGSFYQAQTTGERPLAHYDGLPGDFTAEAITTLGTQVPEGSEGFVTYDCVNPHADGISLDNFVDWLIEAGYPIARIDNYTEWFTRFDTAIRGLSEKQKQHSLLPLLHAFEQPSAAENHGVVPAKRFQHAVQAAGIGPVGQDGTTDIPHLSRRLIVKYAKDLEQLGLL
modifications: Mycobacterium massiliense
In the case of B1, the “substrate acceptance, consumption of NADPH by absorbance at 340 nm” value is listed as “accepted N7-acetyl-7-aminoheptanoate as substrate”.
